Three molecules from patent EP4818200A1 (USWM CT, LLC, dated 2026) can be followed below.

Experiment [1] concerns the target T1, … HLA-A*0201 complex (biotinylated soluble pHLA) (human, enzymatically biotinylated (BirA) on the C-terminal biotinylation tag).
T1 construct: also called MAGE A4; not shown: C-terminal biotinylation tag
As to the kind of experiment: SPR (BIAcore 3000), soluble TCR over immobilised biotinylated pHLA, 25 °C. On the technique in general: SPR reads the build-up and loss of mass on a sensor chip optically.

Experiment [2] addresses T2, … HLA-A*0201 complex (biotinylated soluble pHLA) (human, enzymatically biotinylated (BirA) on the C-terminal biotinylation tag).
T2 construct: also called MAGE-B2; not shown: C-terminal biotinylation tag
The experiment is described as above.

Where a chain is given by its changes, count along the chain named.

B1: TCR2 (TCR)
TCR alpha: MKNQVEQSPQSLIILEGKNCTLQCNYTVSPFSNLRWYKQDTGRGPVSLTIMTFSENTKSNGRYTATLDADTKQSSLHITASQLSDSASYICVVSGGTDSWGKLQF
TCR beta: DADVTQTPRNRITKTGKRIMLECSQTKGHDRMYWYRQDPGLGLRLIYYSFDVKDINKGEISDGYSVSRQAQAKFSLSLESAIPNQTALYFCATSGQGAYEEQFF
The term Kd denotes the constant that tells how readily two partners part at equilibrium. The low end stands for a tighter complex, the high end for a looser complex. B1: the values for the Kd in experiment [1] and in experiment [2] were 17.2 µM and 198 µM, respectively.

B2: TCR3 (TCR)
TCR alpha: B1 TCR alpha with M51V
TCR beta: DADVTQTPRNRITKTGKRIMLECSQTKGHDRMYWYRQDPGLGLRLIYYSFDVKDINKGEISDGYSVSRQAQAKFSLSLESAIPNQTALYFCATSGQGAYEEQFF
On to B2, for which the values for the Kd in experiment [1] and in experiment [2] were 2.6 µM and 27.6 µM, respectively.

B3: TCR4 (TCR)
TCR alpha: B1 TCR alpha with M51L
TCR beta: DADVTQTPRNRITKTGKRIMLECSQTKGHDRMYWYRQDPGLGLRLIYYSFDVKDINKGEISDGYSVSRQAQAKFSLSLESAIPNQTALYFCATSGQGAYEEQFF
Consider B3, for which the Kd worked out at 5.1 µM in experiment [1] and 52.6 µM in experiment [2].
